Experimental data: article PMC11602501 (Frontiers in Immunology, 2024)

T1: FP15 A517D (HIV-1)
T1 sequence (peptide): AVGIGDVFLGFLGAA

T2: FP15 F519D (HIV-1)
T2 sequence (peptide): AVGIGAVDLGFLGAA

T3: FP15 F519E (HIV-1)
T3 sequence (peptide): AVGIGAVELGFLGAA

T4: FP15 V518D (HIV-1)
T4 sequence (peptide): AVGIGADFLGFLGAA

T5: FP15 V518E (HIV-1)
T5 sequence (peptide): AVGIGAEFLGFLGAA

T6: HIV-1 fusion peptide FP15 (Env residues 512-526, most common sequence) (HIV-1 Env fusion peptide 512-526, most …)
T6 construct: source: peptide microarray (PEPperPRINT)
T6 chain: AVGIGAVFLGFLGAA

T7: FP15 A517E (HIV-1 Env fusion peptide 512-526, most …, A517E)
T7 construct: also called FP15 with Glu at residue 517; source: peptide microarray (PEPperPRINT)
T7 chain: AVGIGEVFLGFLGAA


Legend:
FP15 A517D (HIV-1) = biological target: T1, FP15 A517D (HIV-1); experiment: peptide or protein array
FP15 F519D (HIV-1) = biological target: T2, FP15 F519D (HIV-1); experiment: peptide or protein array
FP15 F519E (HIV-1) = biological target: T3, FP15 F519E (HIV-1); experiment: peptide or protein array
FP15 V518D (HIV-1) = biological target: T4, FP15 V518D (HIV-1); experiment: peptide or protein array
FP15 V518E (HIV-1) = biological target: T5, FP15 V518E (HIV-1); experiment: peptide or protein array
[1] = biological target: T6, HIV-1 fusion peptide FP15 (Env residues …); experiment: peptide or protein array; conditions: both partners purified
FP15 A517E = biological target: T7, FP15 A517E; experiment: peptide or protein array; conditions: both partners purified
[2] = biological target: T8, BG505_RnS soluble HIV-1 Env trimer (WT FP sequence) (HIV-1 BG505, UniProt Q2N0S6, stabilised); experiment: BLI; ForteBio Octet HTX; IgG loaded on anti-human Fc (AHC) tips at 20 ug/ml for 3 min; Env trimers at 50 ug/ml for 5 min, dissociation in PBS 5 min; corrected response values, triplicates; conditions: both partners purified
T8 construct: also called BG505 trimer; not shown: single-chain Fc, N-terminal, cleaved; copies: 3 + 3

[3] = biological target: T8, BG505_RnS soluble HIV-1 Env trimer (WT …); experiment: BLI; conditions: both partners purified

| Binder | fold increase of binding intensity over WT (FP15 A517D (HIV-1)) | fold increase of binding intensity over WT (FP15 F519D (HIV-1)) | fold increase of binding intensity over WT (FP15 F519E (HIV-1)) | fold increase of binding intensity over WT (FP15 V518D (HIV-1)) | fold increase of binding intensity over WT (FP15 V518E (HIV-1)) | binding result [1] | fold increase of binding intensity over WT (FP15 A517E) | binding result [2] | binding result [3] |
| --- | --- | --- | --- | --- | --- | --- | --- | --- | --- |
| ACS202 IgG (antibody, V domains shown, source: Expi293, transfected, purified (protein A)) VH: QVQLVESGGGVVQPGGSLRLSCAASGFAFKDFGMHWVRQAPGKGLEWVAVIGGGHGQHQSYSESVKGRFAITRDNEKNKLYLHMDRLRTEDTAVYYCAKDRLGRPWNIGGRLVYYYYGMDVWGQGTTVTVSS VL: AIRMTQSPSSLSASVGDRVTITCQASQDIKKSLNWYRQKPGKAPELLIHDASILQTGVPSAFTASGSGTHFSFVINKLQPEDVGTYFCQEYENLQFTFGPGTKVEIK | 10 fold | 10 fold | 10 fold | 10 fold | 10 fold | binds | 10 fold | binds |  |
| N123-VRC34.01 IgG (antibody, V domains shown, source: Expi293, transfected, purified (protein A)) VH: QEVLVQSGAEVKKPGASVKVSCRAFGYTFTGNALHWVRQAPGQGLEWLGWINPHSGDTTTSQKFQGRVYMTRDKSINTAFLDVTRLTSDDTGIYYCARDKYYGNEAVGMDVWGQGTSVTVSS VL: IQLTQSPSFLSASVGDKVTITCRASQGVRNELAWYQQKPGKAPNLLIYYASTLQSGVPSRFSATGSGTHFTLTVSSLQPEDFATYFCQHMSSYPLTFGGGTKVEIK |  |  |  |  |  |  |  |  | binds |
| 0PV-c.01 IgG (antibody, V domains shown, source: Expi293, transfected, purified (protein A)) VH: QVQLVESGPGVVKPSETLSLTCVVSGGTPGRGFLYWSWVRQPPGKGLEWIGGTATNTDITDYNPSLKSRAAISKDTSRNQFLLNLKPLTAGDTAVYYCTSRAKDYRGPSYSRIDVWGPGVLVTVSS VL: DIVMTQTPLSLPVTPGEPASISCRSSQSLLDSDGNTCLDWFLQKPGQSPQLLIYDVSNRVSGVPDRFSGSGSDTDFTLKISRVEAEDVGVYYCMQFVEFPLTFGGGTKVEIR |  |  |  |  |  | binds |  |  |  |
